Results from the supplement of paper PMC10567573.

B1: SLC35F2 (parent)
chain: FVAFALCMFCLYSFMPLVIKVTSA
B2: KCNA4 (parent)
chain: YQLGEEALLKFREDEGFVREEEDR

Variants of: B1
Experiment: protein stability index of a GFP-peptide fusion (GPS, HEK-293T) (PSI 1-6); higher = more stable
Conditions: c terminus: a fixed tail appended
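Also: lentivirally expressed fusions sorted by FACS into six bins by GFP to DsRed ratio, PSI derived from sequencing read proportions per bin multiplied by bin number.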

Variant | protein stability index
V18W | 2.6
V18T | 2.57
V18Y | 2.54
V18R | 3.05
V18S | 2.91
A24H | 3.79
A24E | 2.42
A24W | 3.16
A24M | 2.66
A24V | 3.15
A24P | 3.3
A24I | 2.65
A24C | 1.31
A24L | 3.27
A24D | 2.65
A24R | 1.84
A24K | 2.04
A24N | 2.63
A24S | 2.61
A24T | 3.11
K20R | 3.56
K20C | 3.38
K20E | 2.71
K20Y | 2.76
K20S | 2.55
K20I | 2.63

Variant | protein stability index
K20L | 3.04
K20G | 2.9
K20H | 1.78
K20N | 3.16
K20F | 2.03
K20T | 3.12
K20Q | 3.38
K20M | 2.62
K20A | 2.95
K20P | 2.56
K20D | 2.22
K20V | 2.56
I19M | 2.48
I19T | 3.51
I19C | 2.7
I19L | 3.06
I19G | 3.04
I19V | 3.21
I19S | 2.42
I19E | 2.87
I19F | 2.69
I19Q | 3.62
I19P | 2.86
I19W | 4.11
I19K | 3.47
I19D | 2.73

Variant | protein stability index
I19H | 2.14
I19Y | 1.94
V21N | 4.29
V21M | 3.27
V21E | 3.06
V21C | 1.7
V21W | 3.02
V21S | 3.11
V21H | 2.9
V21P | 2.76
V21L | 2.06
V21I | 2.6
V21R | 2.38
V21Q | 1.85
V21Y | 3.26
V21A | 2.26
V21F | 2.01
S23Q | 2.39
S23D | 2.85
S23R | 2.78
S23E | 2.49
S23I | 2.45
S23P | 2.96
S23L | 2.89
S23Y | 2.03
S23G | 3.19

Variant | protein stability index
S23K | 2
S23W | 2.54
S23F | 3.51
S23C | 2.9
S23T | 2.71
S23A | 2.39
T22L | 3.31
T22N | 3.68
T22V | 3.01
T22H | 3.96
T22Q | 3.07
T22F | 2.36
T22A | 2.77
T22I | 2.71
T22R | 3.29
T22D | 2.05
T22C | 2.54
T22Y | 2.75
T22S | 2.33
T22P | 3.35
T22W | 2.77
T22E | 3.47
T22G | 2.96

Variants of: B2
Experiment: as above
Conditions: c terminus: a fixed tail appended

Variant | protein stability index
L3H | 5.22
L3Y | 5.23
L3R | 4.75
L3K | 5.02
L3Q | 5.62
L3P | 5.28
L3C | 4.38
L3S | 4.86
L3W | 3.89
L3N | 5.68
L3T | 5.31
L3I | 5.12
L3F | 4.7
L3D | 5.85
L3M | 3.76
L3G | 4.53
L3E | 5.67
L3V | 5.28
L3A | 5.22
Q2Y | 4.31
Q2T | 5.31
Q2V | 4.21
Q2C | 4.91
Q2S | 5.61

Variant | protein stability index
Q2M | 4.79
Q2D | 5.62
Q2I | 4.43
Q2E | 5.37
Q2K | 5.7
Q2F | 4.15
Q2A | 5.36
Q2R | 5.09
Q2P | 5.15
Q2N | 5.23
Q2H | 2.94
Q2L | 4.24
Q2W | 4.19
Q2G | 5.23
E5V | 3.86
E5A | 3.65
E5Q | 3.92
E5C | 4.32
E5I | 3.55
E5R | 3.48
E5M | 3.37
E5L | 3.83
E5F | 2.93
E5H | 3.76

Variant | protein stability index
E5T | 4.2
E5W | 1.63
E5K | 3.3
E5Y | 3.21
E5P | 4.11
E5S | 4.38
E5N | 4.22
E5G | 3.87
E5D | 4.97
K10S | 4.43
K10H | 4.74
K10Q | 4.83
K10Y | 3.94
K10V | 2.88
K10G | 5.52
K10D | 5.55
K10N | 5.07
K10M | 3.59
K10L | 3.1
K10I | 3.35
K10F | 1.64
K10C | 3.37
K10R | 4.09
K10A | 4.01

Variant | protein stability index
K10W | 2.25
K10T | 4.57
K10P | 5.59
K10E | 5.37
F11M | 4.44
F11I | 5.12
F11C | 4.63
F11D | 5.83
F11P | 5.57
F11G | 5.61
F11A | 4.72
F11E | 5.67
F11W | 4.21
F11R | 5.8
F11S | 5.44
F11Y | 5.46
F11Q | 5.1
F11L | 5.38
F11K | 5.48
F11H | 5.21
F11V | 5.35
F11N | 5.75
F11T | 5.27
R12P | 5.62

Variant | protein stability index
R12Q | 4.59
R12W | 2.34
R12T | 3.98
R12K | 4.92
R12C | 3.02
R12I | 4.15
R12D | 5.54
R12L | 4.4
R12A | 4.41
R12M | 4.06
R12F | 4.62
R12E | 5.21
R12Y | 4.59
R12H | 4.75
R12N | 5.17
R12G | 5.08
R12S | 4.66
R12V | 3.81
G4E | 5.77
G4Y | 4.57
G4Q | 5.08
G4H | 4.8
G4M | 5.27
G4P | 5.03

Variant | protein stability index
G4S | 3.81
G4F | 4.28
G4C | 4.51
G4N | 4.28
G4L | 4.41
G4A | 5.24
G4W | 4.4
G4D | 4.43
G4T | 4.12
G4V | 5.11
G4K | 5.34
G4I | 4.83
G4R | 4.56
A7H | 4.56
A7N | 4.82
A7W | 1.48
A7I | 3.99
A7V | 4.33
A7C | 4.89
A7K | 5.36
A7F | 4.43
A7T | 4.95
A7G | 4.64
A7Q | 4.1

Variant | protein stability index
A7L | 4.8
A7S | 4.52
A7Y | 4.27
A7E | 4.38
A7D | 4.23
A7R | 4.62
A7P | 4.59
A7M | 4.14
E13C | 2.42
E13F | 3.63
E13G | 3.71
E13D | 4.11
E13A | 3.23
L9S | 5.05
L9Y | 5.09
L9G | 5.03
L9C | 4.92
L9R | 4.41
L9T | 5.15
L9A | 4.88
L9D | 5.87
L9H | 4.96
L9W | 4.01
L9V | 5.15

Variant | protein stability index
L9P | 5.09
L9I | 5
L9N | 4.17
L9E | 5.37
L9M | 4.84
L9F | 4.36
L9K | 4.57
L9Q | 4.9
Y1I | 5.3
Y1V | 5.58
Y1A | 5.7
Y1H | 5.47
Y1C | 5.21
Y1T | 5.57
Y1G | 5.95
Y1D | 5.79
Y1W | 5.25
Y1Q | 5.41
Y1R | 5.81
Y1P | 5.63
Y1E | 5.74
Y1L | 4.96
Y1N | 5.67
Y1F | 4.45

Variant | protein stability index
Y1S | 5.53
Y1M | 5.47
Y1K | 5.6
L8T | 4.88
L8G | 5.48
L8P | 5.13
L8A | 4.93
L8D | 5.6
L8F | 4.43
L8N | 5.5
L8M | 4.56
L8K | 5.04
L8C | 4.98
L8I | 5.21
L8S | 5.47
L8W | 3.55
L8V | 5.58
L8Q | 5.65
L8R | 5.13
L8H | 5.62
L8E | 5.5
L8Y | 5.21
E6P | 4.92
E6S | 4.67

Variant | protein stability index
E6V | 2.93
E6G | 4.32
E6F | 2.4
E6N | 4.43
E6H | 4.33
E6C | 3.51
E6A | 4.31
E6K | 4
E6Y | 3.04
E6T | 4.32
E6I | 2.93
E6L | 3.32
E6R | 3.46
E6D | 4.67
E6M | 3.99
E6W | 1.97
E6Q | 4.23
